In data set [1] the target is T1, Cdc13-L91R (Saccharomyces cerevisiae, UniProt P32797 1-924, L91R).
T1 sequence: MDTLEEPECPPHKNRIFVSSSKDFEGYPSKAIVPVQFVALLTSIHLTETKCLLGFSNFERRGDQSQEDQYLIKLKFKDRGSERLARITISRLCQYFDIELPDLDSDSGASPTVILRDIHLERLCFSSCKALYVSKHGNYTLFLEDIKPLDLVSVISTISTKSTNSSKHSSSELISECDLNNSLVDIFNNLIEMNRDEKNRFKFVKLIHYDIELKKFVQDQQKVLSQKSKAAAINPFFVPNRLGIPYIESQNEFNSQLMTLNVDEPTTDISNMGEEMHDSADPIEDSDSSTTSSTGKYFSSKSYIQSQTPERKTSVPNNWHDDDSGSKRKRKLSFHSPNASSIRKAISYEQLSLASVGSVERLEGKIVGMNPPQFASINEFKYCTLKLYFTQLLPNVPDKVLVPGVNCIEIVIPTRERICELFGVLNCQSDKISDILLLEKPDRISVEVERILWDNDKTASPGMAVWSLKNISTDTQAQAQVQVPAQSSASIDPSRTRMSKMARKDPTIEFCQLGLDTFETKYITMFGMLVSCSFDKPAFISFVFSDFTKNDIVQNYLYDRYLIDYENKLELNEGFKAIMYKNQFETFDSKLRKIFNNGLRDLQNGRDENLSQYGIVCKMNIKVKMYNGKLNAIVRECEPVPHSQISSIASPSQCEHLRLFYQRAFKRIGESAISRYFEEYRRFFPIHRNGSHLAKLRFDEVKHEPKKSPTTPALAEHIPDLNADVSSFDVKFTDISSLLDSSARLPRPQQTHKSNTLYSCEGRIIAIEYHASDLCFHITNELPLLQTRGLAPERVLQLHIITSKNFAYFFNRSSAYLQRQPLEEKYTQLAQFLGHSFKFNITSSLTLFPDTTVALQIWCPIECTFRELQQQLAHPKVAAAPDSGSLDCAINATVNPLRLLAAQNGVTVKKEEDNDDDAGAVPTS
In words: filter binding.

The target in data set [2] is T2, Cdc13-DBD (Saccharomyces cerevisiae, UniProt P32797 497-694).
T2 sequence: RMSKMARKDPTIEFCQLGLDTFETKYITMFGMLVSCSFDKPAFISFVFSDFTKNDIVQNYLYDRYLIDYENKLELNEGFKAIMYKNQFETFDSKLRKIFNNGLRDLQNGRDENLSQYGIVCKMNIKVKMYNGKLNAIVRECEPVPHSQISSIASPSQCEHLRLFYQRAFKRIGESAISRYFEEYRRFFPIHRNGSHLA
Description: filter binding.

In data set [3] the target is T1, Cdc13-L91R. In words: EMSA. Background: A gel shift assay detects complexes by their altered migration in electrophoresis.
Data set [4] addresses T2, Cdc13-DBD. In words: EMSA.
The next data set concerns the target T3, Cdc13-F539A (Saccharomyces cerevisiae, UniProt P32797 1-924, F539A).
T3 sequence: T1 sequence with R91L, F539A
Description: EMSA.

Positions count from the first letter of the chain named.

As a reminder, the Kd is the concentration at which binding is half-saturated. High values mean lower affinity, low ones higher affinity. GTGTGGGTGTG (ssDNA) [Tel11]: the dissociation constant Kd in the data set with Cdc13-L91R [1] came to 220 ± 50 pM; in the data set with Cdc13-DBD [2], 210 ± 20 pM; with Cdc13-L91R [3] it was 5 ± 0.6 pM; in the data set with Cdc13-DBD [4], 3.4 ± 0.5 pM; with Cdc13-F539A, 140 ± 20 pM.

Source of the values: PMC3874162 (Nucleic Acids Research, 2013).
